Test results: patent US20220323445A1, “REDUCING IMMUNOGENICITY TO PEGLOTICASE” (Horizon Therapeutics Ireland DAC, priority 2020, published 2022)

System: serum uric acid (sUA)
Assay: Serum uric acid (sUA) levels and sUA responders, open-label study of pegloticase with MTX (NCT03635957)
Type: in vivo, human
Experimental: The primary objective is to estimate the response rate during Month 6 (Weeks 20, 22, and 24), as measured by the sustained normalization of serum uric acid (SUA) to <6 mg/dL for at least 80% of the time during Month 6 in subjects receiving KXX with MTX.
The primary efficacy outcome endpoint is the sustained normalization of SUA to <6 mg/dL for at least 80% of the time during month 6 (weeks 20, 22, and 24) in subjects receiving KXX with MTX. This is slightly below the urate solubility threshold and this threshold has been the accepted standard for nearly all modern gout trials. Participants who achieve this endpoint were classified as “responders.” Serum uric acid (SUA) responders may also be defined as participants achieving and maintaining SUA <6 mg/dL for at least 80% of the time during Month 6 (Weeks 20, 22, and 24).
Blood samples may be collected prior to each pegloticase infusion for measurement of SUA levels using the Beckman Coulter AU System Uric Acid procedure. Participants were declared “non-responders” if there were SUA measures >6 mg/dL at 2 consecutive study visits beginning with the week 2 visit. […] If the SUA goal is not maintained before or at the 12-week mark, it was assumed that the participant had developed clinically relevant anti-pegloticase antibody and they received no further infusions. This assumption and subsequent discontinuation of pegloticase was consistent with the protocol of large phase III randomized controlled trials and the product label. A formal stopping rule was 2 occasions of SUA levels of greater than 6 mg/dL.
Clinical Chemistry—Blood samples were collected prior to each pegloticase infusion for measurement of SUA levels (primary efficacy parameter) using the Beckman Coulter AU System Uric Acid procedure. In this procedure uric acid is converted to hydrogen peroxide. Hydrogen peroxide reacts with reagent to produce a chromophore which is read bichromatically at 660/800 nm. The amount of dye formed is proportional to the uric acid concentration in the sample.
Serum samples for measurement of SUA levels were collected at the Screening Visit, the Week −4 Visit (prior to the first dose of MTX), and the Week −2 Visit during the MTX Run-in Period; within 48 hours prior to each pegloticase infusion and after the end of each pegloticase infusion prior to discharge from the site during the Pegloticase+IMM Period; at the non-infusion Week 52/End of Study/Early Termination Visits and at the Post Treatment 3 and 6 Month Follow-up Visits. Additional serum samples for SUA levels were collected at optional non-infusion (Frequent Sampling) Visits at Weeks 1 and 7. […] Subjects with SUA level >6 mg/dL at 2 consecutive visits beginning at Week 2 visit discontinued treatment, completed the End of Pegloticase Infusion Visit procedures within 2 weeks and continued the subject visits according to the protocol (without treatment).
Efficacy analyses were performed using the modified intention-to-treat (mITT) population, defined as all enrolled subjects who received ≥1 dose of pegloticase. The proportion of Month 6 responders was summarized, along with a 95% confidence interval for the proportion. The proportion of Month 3 and overall (Months 3 and 6 combined) responders was analyzed similarly.
A subject was declared a non-responder if the subject had SUA level >6 mg/dL at 2 consecutive study visits beginning with the Week 2 Visit. In addition, a subject who withdraws from study treatment for any reason after the first dose of pegloticase in the KXX+MTX Period and prior to Month 6 (for the primary endpoint) or Month 3 (for the secondary endpoint) was considered a non-responder if SUA values were not collected at the planned time points.
Patients were administered oral MTX (15 mg/week) and folate (1 mg/day) 4 weeks prior to the first pegloticase infusion (Day 1) and throughout the pegloticase treatment period. […]

[1] = Week 12 - Post-Infusion, mITT, n=10
[2] = Week 12 - Pre-Infusion, Month 6 sUA Responders
[3] = Week 12 - Pre-Infusion, mITT, n=11
[4] = Week 14 - Post-Infusion, Month 6 sUA Responders
[5] = Week 14 - Post-Infusion, mITT, n=10
[6] = Week 14 - Pre-Infusion, Month 6 sUA Responders
[7] = Week 14 - Pre-Infusion, mITT, n=11
[8] = Week 16 - Post-Infusion, Month 6 sUA Responders
[9] = Week 16 - Post-Infusion, mITT, n=11
[10] = Week 16 - Pre-Infusion, Month 6 sUA Responders
[11] = Week 16 - Pre-Infusion, mITT, n=11
[12] = Week 18 - Post-Infusion, Month 6 sUA Responders
[13] = Week 18 - Post-Infusion, mITT, n=11

B1: pegloticase (protein)
chain: TYKKNDEVEFVRTGYGKDMIKVLHIQRDGKYHSIKEVATTVQLTLSSKKDYLHGDNSDVIPTDTIKNTVNVLAKFKGIKSIETFAVTICEHFLSSFKHVIRAQVYVEEVPWKRFEKNGVKHVHAFIYTPTGTHFCEVEQIRNGPPVIHSGIKDLKVLKTTQSGFEGFIKDQFTTLPEVKDRCFATQVYCKWRYHQGRDVDFEATWDTVRSIVLQKFAGPYDKGEYSPSVQKTLYDIQVLTLGQVPEIEDMEISLPNIHYLNIDMSKMGLINKEEVLLPLDNPYGKITGTVKRKLSSRL
modifications: monomethoxy PEG conjugated; Krystexxa Sequence
notes: covalent conjugate of uricase produced by a genetically modified strain of Escherichia coli and monomethoxypoly (ethylene glycol)
sUA Change from Baseline, Mean (SD) [1]: −9.13 (2.911) mg/dL
sUA Change from Baseline, Median [1]: -9.05 mg/dL
sUA Observed, Mean (SD) [1]: 0.30 (0.000) mg/dL
sUA Observed, Median [1]: 0.30 mg/dL
sUA < 6 mg/dL, % [2]: (100%)
sUA Change from Baseline, Mean [2]: -8.98 mg/dL
sUA Change from Baseline, Median [2]: -8.80 mg/dL
sUA Observed, Mean [2]: 0.30 mg/dL
sUA Observed, Median [2]: 0.30 mg/dL
sUA < 6 mg/dL, n (%) [3]: 11 (100%)
sUA Change from Baseline, Mean (SD) [3]: −8.98 (2.806) mg/dL
sUA Change from Baseline, Median [3]: -8.80 mg/dL
sUA Observed, Mean (SD) [3]: 0.30 (0.015) mg/dL
sUA Observed, Median [3]: 0.30 mg/dL
sUA < 6 mg/dL, % [4]: (100%)
sUA Change from Baseline, Mean [4]: -9.01 mg/dL
sUA Change from Baseline, Median [4]: -9.05 mg/dL
sUA Observed, Mean [4]: 0.30 mg/dL
sUA Observed, Median [4]: 0.30 mg/dL
sUA < 6 mg/dL, n (%) [5]: 10 (100%)
sUA Change from Baseline, Mean (SD) [5]: −9.01 (2.959) mg/dL
sUA Change from Baseline, Median [5]: -9.05 mg/dL
sUA Observed, Mean (SD) [5]: 0.30 (0.000) mg/dL
sUA Observed, Median [5]: 0.30 mg/dL
sUA < 6 mg/dL, % [6]: (100%)
sUA Change from Baseline, Mean [6]: -8.97 mg/dL
sUA Change from Baseline, Median [6]: -8.80 mg/dL
sUA Observed, Mean [6]: 0.30 mg/dL
sUA Observed, Median [6]: 0.30 mg/dL
sUA < 6 mg/dL, n (%) [7]: 11 (100%)
sUA Change from Baseline, Mean (SD) [7]: −8.97 (2.810) mg/dL
sUA Change from Baseline, Median [7]: -8.80 mg/dL
sUA Observed, Mean (SD) [7]: 0.30 (0.000) mg/dL
sUA Observed, Median [7]: 0.30 mg/dL
sUA < 6 mg/dL, % [8]: (100%)
sUA Change from Baseline, Mean [8]: -8.97 mg/dL
sUA Change from Baseline, Median [8]: -8.80 mg/dL
sUA Observed, Mean [8]: 0.30 mg/dL
sUA Observed, Median [8]: 0.30 mg/dL
sUA < 6 mg/dL, n (%) [9]: 11 (100%)
sUA Change from Baseline, Mean (SD) [9]: −8.97 (2.810) mg/dL
sUA Change from Baseline, Median [9]: -8.80 mg/dL
sUA Observed, Mean (SD) [9]: 0.30 (0.000) mg/dL
sUA Observed, Median [9]: 0.30 mg/dL
sUA < 6 mg/dL, % [10]: (100%)
sUA Change from Baseline, Mean [10]: -8.97 mg/dL
sUA Change from Baseline, Median [10]: -8.80 mg/dL
sUA Observed, Mean [10]: 0.30 mg/dL
sUA Observed, Median [10]: 0.30 mg/dL
sUA < 6 mg/dL, n (%) [11]: 11 (100%)
sUA Change from Baseline, Mean (SD) [11]: −8.97 (2.810) mg/dL
sUA Change from Baseline, Median [11]: -8.80 mg/dL
sUA Observed, Mean (SD) [11]: 0.30 (0.000) mg/dL
sUA Observed, Median [11]: 0.30 mg/dL
sUA < 6 mg/dL, % [12]: (100%)
sUA Change from Baseline, Mean [12]: -8.97 mg/dL
sUA Change from Baseline, Median [12]: -8.80 mg/dL
sUA Observed, Mean [12]: 0.30 mg/dL
sUA Observed, Median [12]: 0.30 mg/dL
sUA < 6 mg/dL, n (%) [13]: 11 (100%)
sUA Change from Baseline, Mean (SD) [13]: −8.97 (2.810) mg/dL
sUA Change from Baseline, Median [13]: -8.80 mg/dL
sUA Observed, Mean (SD) [13]: 0.30 (0.000) mg/dL
sUA Observed, Median [13]: 0.30 mg/dL
sUA < 6 mg/dL, % (Week 18 - Pre-Infusion, Month 6 sUA Responders): (100%)
